Data set [1] deals with T1, GST-cdc25c (full-length) (Accession number L26584) (UniProt P30307).
T1 sequence: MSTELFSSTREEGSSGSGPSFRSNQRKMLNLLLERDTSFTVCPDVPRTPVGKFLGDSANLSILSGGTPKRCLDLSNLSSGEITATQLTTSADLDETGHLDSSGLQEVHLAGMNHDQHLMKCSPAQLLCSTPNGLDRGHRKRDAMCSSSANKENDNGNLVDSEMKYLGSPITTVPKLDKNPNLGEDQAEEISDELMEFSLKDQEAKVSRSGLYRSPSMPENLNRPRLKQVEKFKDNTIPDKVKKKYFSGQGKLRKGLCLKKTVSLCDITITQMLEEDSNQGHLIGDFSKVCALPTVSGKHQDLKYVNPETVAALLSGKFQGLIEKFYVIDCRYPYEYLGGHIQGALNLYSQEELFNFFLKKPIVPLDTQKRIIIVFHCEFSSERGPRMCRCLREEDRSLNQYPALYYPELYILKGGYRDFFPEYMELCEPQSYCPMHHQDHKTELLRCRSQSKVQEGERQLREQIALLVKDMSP

The subject of data set [2] is histone H1 (J. Biochem. 100, 359, 1986).
The target of data set [3] is GST-weel (Accession number U10564) (UniProt P30291).
For data set [4], the target named is T2, GST-cdc25c (200 to 250 amino acids) (UniProt P30307).
T2 sequence: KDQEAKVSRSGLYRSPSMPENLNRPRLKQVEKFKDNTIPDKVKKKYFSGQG

Data set [5] deals with T3, human Chk1 (Accession number AF016582) protein prepared as a fusion protein with glutathione S-transferase (GST) (UniProt O14757).
T3 sequence: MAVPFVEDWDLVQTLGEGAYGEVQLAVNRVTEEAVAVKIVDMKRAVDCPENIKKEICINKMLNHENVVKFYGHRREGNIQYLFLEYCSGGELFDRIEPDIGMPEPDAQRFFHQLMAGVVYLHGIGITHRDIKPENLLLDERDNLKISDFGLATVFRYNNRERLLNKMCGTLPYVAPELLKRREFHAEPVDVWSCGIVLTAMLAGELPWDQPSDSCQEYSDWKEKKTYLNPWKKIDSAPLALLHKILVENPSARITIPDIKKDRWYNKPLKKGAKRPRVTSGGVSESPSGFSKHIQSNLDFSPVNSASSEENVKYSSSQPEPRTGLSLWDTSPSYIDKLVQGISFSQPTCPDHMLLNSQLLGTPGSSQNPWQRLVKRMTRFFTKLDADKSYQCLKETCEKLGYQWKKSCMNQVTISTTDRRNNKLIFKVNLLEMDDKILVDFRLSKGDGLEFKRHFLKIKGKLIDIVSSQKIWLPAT

Chain of GST-weel (Accession number U10564) (P30291 whole entry, looked up, the tested form may be a part): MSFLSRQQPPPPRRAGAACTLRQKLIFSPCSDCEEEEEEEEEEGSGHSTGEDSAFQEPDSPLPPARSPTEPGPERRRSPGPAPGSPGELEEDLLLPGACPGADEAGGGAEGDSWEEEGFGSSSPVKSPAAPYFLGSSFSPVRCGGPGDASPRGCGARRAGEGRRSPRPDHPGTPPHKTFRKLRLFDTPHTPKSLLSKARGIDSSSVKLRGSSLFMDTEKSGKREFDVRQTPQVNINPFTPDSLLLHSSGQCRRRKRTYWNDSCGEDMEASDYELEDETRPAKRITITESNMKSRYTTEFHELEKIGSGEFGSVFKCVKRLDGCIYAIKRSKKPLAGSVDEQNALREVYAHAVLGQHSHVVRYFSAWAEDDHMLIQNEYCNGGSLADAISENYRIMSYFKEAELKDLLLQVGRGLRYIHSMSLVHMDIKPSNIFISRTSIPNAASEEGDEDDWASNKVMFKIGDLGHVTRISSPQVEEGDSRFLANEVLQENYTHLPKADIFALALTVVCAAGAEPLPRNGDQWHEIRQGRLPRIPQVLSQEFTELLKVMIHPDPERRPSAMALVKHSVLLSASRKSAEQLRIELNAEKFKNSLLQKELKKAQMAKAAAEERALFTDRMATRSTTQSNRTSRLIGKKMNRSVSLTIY

With “hCds1 KM mutant (249th lysine converted to methionine, myc/6xHis-tagged, expressed in Sf9 cells)”, the “in vitro kinase assay ([gamma-32P]ATP, SDS-PAGE, autoradiography)” value in data set [1], in data set [2], in data set [3], in data set [4] and in data set [5] was “failed to phosphorylate any substrate” throughout.

For the substance “recombinant "hCds1" (human Cds1, wild type, myc/6xHis-tagged, expressed in Sf9 cells)”, the “in vitro kinase assay ([gamma-32P]ATP, SDS-PAGE, autoradiography)” value in data set [1] is reported as “efficiently phosphorylated”; in data set [2] it was “efficiently phosphorylated”; in data set [3] it was “hardly phosphorylated”; in data set [4], “efficiently phosphorylated”; in data set [5], “hardly phosphorylated”.

The values are drawn from patent publication US20020012964.
